Experimental data reported in patent US12655441B2, “PPO polypeptides tolerant to PPO-inhibiting herbicides and use thereof” (QINGDAO KINGAGROOT CHEMICAL COMPOUND CO., LTD., priority 2021, dated 2026).
Numbering of substitutions follows the chain as printed. Names and notes keep the numbering of the source.

B1: L423I (protein)
chain: MAAAAAAMATATSATAAPPLRIRDAARRTRRRGHVRCAVASGAAEAPAAPGARVSADCVVVGGGISGLCTAQALATKHGVGDVLVTEARARPGGNITTAERAGEGYLWEEGPNSFQPSDPVLTMAVDSGLKDDLVFGDPNAPRFVLWEGKLRPVPSKPGDLPFFDLMSIPGKLRAGLGALGVRAPPPGREESVEDFVRRNLGAEVFERLIEPFCSGVYAGDPSKLSMKAAFGKVWRLEDTGGSIIGGTIKTIQERGKNPKPPRDPRLPTPKGQTVASFRKGLTMLPDAITSRLGSKVKLSWKLTSITKSDNKGYALVYETPEGVVSVQAKTVVMTIPSYVASDILRPLSSDAADALSIFYYPPVAAVTVSYPKEAIRKECLIDGELQGFGQLHPRSQGVETLGTIYSSSLFPNRAPAGRVLLINYIGGSTNTGIVSKTESELVEAVDRDLRKMLINPKAVDPLVLGVRVWPQAIPQFLIGHLDHLEAAKSALGKGGYDGLFLGGNYVAGVALGRCVEGAYESASQISDYLTKYAYK
modifications: Amino-acid sequence of PPO1 from rice mutant (OsPPO1 L423I)
B2: OsPPO1 WT: Amino-acid sequence of PPO1 from wild-type rice (protein)
chain: B1 chain with I423L
modifications: Amino-acid sequence of PPO1 from wild-type rice (OsPPO1 WT)
B3: Y425I: Amino-acid sequence of PPO1 from rice mutant (protein)
chain: B1 chain with I423L, Y425I
modifications: Amino-acid sequence of PPO1 from rice mutant (OsPPO1 Y425I)

How the values were obtained:
[1] = tested on: PPO-deficient Escherichia coli (ΔhemG); test: PPO-deficient E. coli (ΔhemG) transformed by rice OsPPO1 mutant genes, growth on LB medium containing herbicide; details: 500 nM compound A
Arabidopsis thaliana = test: Herbicide resistance test of Arabidopsis thaliana seeds overexpressing crop PPO1 WT or mutant on MS medium; assay type: in vivo; details: overexpressed in Arabidopsis thaliana seed
Procedure: 1) Sowing: plump and vernalized wild-type Arabidopsis thaliana seeds were selected, treated with 75% alcohol for 1 minute, disinfected with 10% NaClO for 6 minutes, and washed with sterile water for 5 to 6 times. After the sterilization was completed, the seeds were placed on a MS medium plate for one week, then transplanted to sterilized nutrient soil (nutrient soil:vermiculite=1:1) and cultured in a greenhouse at (25±2) ° C. with a photoperiod of 16 h/8 h (light/dark).
4) Infestation of Arabidopsis thaliana inflorescences: the uninfected Arabidopsis thaliana with good growth state and lush inflorescences were selected for infection and their fruit pods were cut off from the plants by scissors prior to transformation. The Arabidopsis thaliana inflorescences were dipped in the prepared infection solution for 0.5 to 1 minute. Then the infected Arabidopsis thaliana seedlings were placed in dark and humid conditions for 24 hours. After one week, the infection was repeated.
After the transformation of dipped Arabidopsis thaliana inflorescences, Arabidopsis thaliana TO-generation seeds were collected and sowed on a resistant MS plate containing 30 mg/L hygromycin to screen positive plants.
The obtained overexpressed mutant and wild-type Arabidopsis thaliana seeds of different crops were tested for resistance on a MS medium (petri dish) containing different concentrations of PPO-inhibiting herbicidal compounds, as shown in FIG. 12-23.

[2] = tested on: Huaidao No. 5 rice seedlings; assay type: in vivo
Procedure: Rice seeds were peeled, washed with sterile water as many times as needed until the washing water became clear. Then the seeds were disinfected with 70% alcohol for 30 seconds and then with 5% sodium hypochlorite. The seeds were cultivated in a horizontal shaker for 20 minutes, disinfected with sodium hypochlorite and washed with sterile water for 5 times, placed on a sterile absorbent paper to air-dry the surface moisture of the seeds, and inoculated in an induction medium to cultivate the callus at 28° C. • 4) Infection of rice callus with Agrobacterium: the Huaidao No. 5 callus with a diameter of 3 mm was selected for sub-cultivation for 10 days and the callus was collected into a 50 ml centrifuge tube. […]

OsPPO1 = test: In vitro enzyme activity test of OsPPO1 proteins (fluorescence, substrate protoporphyrinogen); assay type: biochemical, rice; details: enzyme 500 nM, protoporphyrinogen 0.125-16 μM, excitation 410 nm, detection 630 nm
Procedure: Protoporphyrinogen, a substrate catalyzed by PPO, was prepared by reducing protoporphyrin with sodium amalgam. 10 mg of protoporphyrin was dissolved in 10 mL solvent, added with 20% sodium amalgam at the rate of 0.2 g/mL, reacted for 2 hours, then filtered under the protection of nitrogen in dark place. After the reaction was completed, the reaction solution should become achromatic or light brown. The reaction solution was diluted by adding with reaction buffer (100 mM Tris-HCl, 1 mM EDTA, 5 mM DTT, 0.1% Tween 20/80), and 10% hydrochloric acid was used to adjust pH to about 8.0. […]
3) The constructed fusion expression vector pET28a-MBP-OsPPO1 was transferred into E. coli BL21 (DE3), subjected to induced-expression with 0.5 mM IPTG, then purified with the Ni-NTA column, afterwards subjected to thrombin digestion, dialysed, and purified secondly by dextrin-column and Ni-column. […] The collected strains were re-suspended with the Ni-buffer A (50 mM Tris pH 8.0, 500 mM NaCl, 50 mM imidazole), homogenized by high pressure cell homogenizer, and centrifuged at 4000×g at 4° C. for 30 minutes; the supernatant was purified with the Ni column, then the purity thereof was detected by SDS-PAGE. The thrombin enzyme was added according to the quantity of proteins, dialyzed with 50 mM Tris pH 8.0, 500 mM NaCl, 1 mM DTT buffer. […]

Row | Molecule | growth of ΔhemG transformant on LB medium containing compound A, compared with the wild type [1] | tolerance to compound A compared with wild-type Arabidopsis thaliana (Arabidopsis thaliana; different concentrations of compound A) | tolerance to flumioxazin compared with wild-type Arabidopsis thaliana (Arabidopsis thaliana; different concentrations of flumioxazin) | tolerance to saflufenacil compared with wild-type Arabidopsis thaliana (Arabidopsis thaliana; different concentrations of saflufenacil) | tolerance/resistance to compound A compared with wild-type Huaidao No. 5 ([2]; T0 generation rice seedlings, compound A sprayed) | resistance compared with the wild-type control ([2]; compound A 135 g/ha and 270 g/ha) | enzyme activity relative to WT (OsPPO1)
1 | B1 | grew normally |  |  |  |  |  | 
2 | B2 |  | certain level of tolerance | certain level of tolerance | certain level of tolerance | certain level of tolerance/resistance | showed no difference | 
3 | B3 | grew normally |  |  |  |  |  | lower than WT
